T1: FcγRIIa R (FcγRIIa, allotype with Arg at position 131), extracellular domain with C-terminal His tag (human, UniProt P12318 34-217)
T1 construct: extracellular domain; also called FcγRIIa R type; 2aR
T1 sequence (looked up): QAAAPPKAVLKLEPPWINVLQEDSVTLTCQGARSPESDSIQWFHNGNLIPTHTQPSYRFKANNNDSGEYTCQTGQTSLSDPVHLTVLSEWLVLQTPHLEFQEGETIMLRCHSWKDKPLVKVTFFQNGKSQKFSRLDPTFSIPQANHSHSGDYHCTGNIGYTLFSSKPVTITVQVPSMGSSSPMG


What follows are binders tested against T1, FcγRIIa R (FcγRIIa, allotype with Arg …) (assay: SPR (Biacore), antibody captured on antigen peptide chip, FcγR as analyte; relative binding).
Description: Analysis of interaction between objective antibody and the FcγR was carried out using Biacore T100 (GE Healthcare). HBS-EP+ (GE Healthcare) was used as the running buffer, and the measurement temperature was set to 25° C. Chips produced by immobilizing the antigen peptide by the amine coupling method to a Series S Sencor Chip CM5 (GE Healthcare), or alternatively, chips produced by allowing preliminarily biotinylated antigen peptides to interact with and immobilize onto a Series S Sensor Chip SA (certified) (GE Healthcare) were used. Antibodies of interest were captured onto an antigen peptide-immobilized chip, and allowed to interact to each FcγR diluted with running buffer. To regenerate and repeatedly use the chip, the antibodies captured on the chip were washed off by reacting 10 mM glycine-HCl, pH 1.5.

Ho/Con_2aR | Binder
103 % of GpH7-B3/GpL16-k0 (=100) | GpH7-B3 variant S239_18N/GpL16-k0 (antibody, human IgG1, kappa, also called Ho Ab) heavy: not shown light: DIVMTQSPLSLPVTPGEPASISCQASESLVHSNRNTYLHWYLQKPGQSPQLLIYKVSNRFSGVPDRFSGSGSGTDFTLKISRVEAEDVGVYYCSQNTHVPPTFGQGTKVEIERTVAAPSVFIFPPSDEQLKSGTASVVCLLNNFYPREAKVQWKVDNALQSGNSQESVTEQDSKDSTYSLSSTLTLSKADYEKHKVYACEVTHQGLSSPVTKSFNRGEC
98.3 % of GpH7-B3/GpL16-k0 (=100) | GpH7-B3 variant S337_04F/GpL16-k0 (antibody, human IgG1, kappa, also called Ho Ab) heavy: not shown light: DIVMTQSPLSLPVTPGEPASISCQASESLVHSNRNTYLHWYLQKPGQSPQLLIYKVSNRFSGVPDRFSGSGSGTDFTLKISRVEAEDVGVYYCSQNTHVPPTFGQGTKVEIERTVAAPSVFIFPPSDEQLKSGTASVVCLLNNFYPREAKVQWKVDNALQSGNSQESVTEQDSKDSTYSLSSTLTLSKADYEKHKVYACEVTHQGLSSPVTKSFNRGEC
114 % of GpH7-B3/GpL16-k0 (=100) | GpH7-B3 variant S337_09D/GpL16-k0 (antibody, human IgG1, kappa, also called Ho Ab) heavy: not shown light: DIVMTQSPLSLPVTPGEPASISCQASESLVHSNRNTYLHWYLQKPGQSPQLLIYKVSNRFSGVPDRFSGSGSGTDFTLKISRVEAEDVGVYYCSQNTHVPPTFGQGTKVEIERTVAAPSVFIFPPSDEQLKSGTASVVCLLNNFYPREAKVQWKVDNALQSGNSQESVTEQDSKDSTYSLSSTLTLSKADYEKHKVYACEVTHQGLSSPVTKSFNRGEC
99.4 % of GpH7-B3/GpL16-k0 (=100) | GpH7-B3 variant S337_08L/GpL16-k0 (antibody, human IgG1, kappa, also called Ho Ab) heavy: not shown light: DIVMTQSPLSLPVTPGEPASISCQASESLVHSNRNTYLHWYLQKPGQSPQLLIYKVSNRFSGVPDRFSGSGSGTDFTLKISRVEAEDVGVYYCSQNTHVPPTFGQGTKVEIERTVAAPSVFIFPPSDEQLKSGTASVVCLLNNFYPREAKVQWKVDNALQSGNSQESVTEQDSKDSTYSLSSTLTLSKADYEKHKVYACEVTHQGLSSPVTKSFNRGEC
101 % of GpH7-B3/GpL16-k0 (=100) | GpH7-B3 variant S324_04F/GpL16-k0 (antibody, human IgG1, kappa, also called Ho Ab) heavy: not shown light: DIVMTQSPLSLPVTPGEPASISCQASESLVHSNRNTYLHWYLQKPGQSPQLLIYKVSNRFSGVPDRFSGSGSGTDFTLKISRVEAEDVGVYYCSQNTHVPPTFGQGTKVEIERTVAAPSVFIFPPSDEQLKSGTASVVCLLNNFYPREAKVQWKVDNALQSGNSQESVTEQDSKDSTYSLSSTLTLSKADYEKHKVYACEVTHQGLSSPVTKSFNRGEC
103 % of GpH7-B3/GpL16-k0 (=100) | GpH7-B3 variant S337_18N/GpL16-k0 (antibody, human IgG1, kappa, also called Ho Ab) heavy: not shown light: DIVMTQSPLSLPVTPGEPASISCQASESLVHSNRNTYLHWYLQKPGQSPQLLIYKVSNRFSGVPDRFSGSGSGTDFTLKISRVEAEDVGVYYCSQNTHVPPTFGQGTKVEIERTVAAPSVFIFPPSDEQLKSGTASVVCLLNNFYPREAKVQWKVDNALQSGNSQESVTEQDSKDSTYSLSSTLTLSKADYEKHKVYACEVTHQGLSSPVTKSFNRGEC
103 % of GpH7-B3/GpL16-k0 (=100) | GpH7-B3 variant S337_07I/GpL16-k0 (antibody, human IgG1, kappa, also called Ho Ab) heavy: not shown light: DIVMTQSPLSLPVTPGEPASISCQASESLVHSNRNTYLHWYLQKPGQSPQLLIYKVSNRFSGVPDRFSGSGSGTDFTLKISRVEAEDVGVYYCSQNTHVPPTFGQGTKVEIERTVAAPSVFIFPPSDEQLKSGTASVVCLLNNFYPREAKVQWKVDNALQSGNSQESVTEQDSKDSTYSLSSTLTLSKADYEKHKVYACEVTHQGLSSPVTKSFNRGEC
101 % of GpH7-B3/GpL16-k0 (=100) | GpH7-B3 variant S337_06M/GpL16-k0 (antibody, human IgG1, kappa, also called Ho Ab) heavy: not shown light: DIVMTQSPLSLPVTPGEPASISCQASESLVHSNRNTYLHWYLQKPGQSPQLLIYKVSNRFSGVPDRFSGSGSGTDFTLKISRVEAEDVGVYYCSQNTHVPPTFGQGTKVEIERTVAAPSVFIFPPSDEQLKSGTASVVCLLNNFYPREAKVQWKVDNALQSGNSQESVTEQDSKDSTYSLSSTLTLSKADYEKHKVYACEVTHQGLSSPVTKSFNRGEC
94.6 % of GpH7-B3/GpL16-k0 (=100) | GpH7-B3 variant S337_11K/GpL16-k0 (antibody, human IgG1, kappa, also called Ho Ab) heavy: not shown light: DIVMTQSPLSLPVTPGEPASISCQASESLVHSNRNTYLHWYLQKPGQSPQLLIYKVSNRFSGVPDRFSGSGSGTDFTLKISRVEAEDVGVYYCSQNTHVPPTFGQGTKVEIERTVAAPSVFIFPPSDEQLKSGTASVVCLLNNFYPREAKVQWKVDNALQSGNSQESVTEQDSKDSTYSLSSTLTLSKADYEKHKVYACEVTHQGLSSPVTKSFNRGEC
115 % of GpH7-B3/GpL16-k0 (=100) | GpH7-B3 variant S267_03V/GpL16-k0 (antibody, human IgG1, kappa, also called Ho Ab) heavy: not shown light: DIVMTQSPLSLPVTPGEPASISCQASESLVHSNRNTYLHWYLQKPGQSPQLLIYKVSNRFSGVPDRFSGSGSGTDFTLKISRVEAEDVGVYYCSQNTHVPPTFGQGTKVEIERTVAAPSVFIFPPSDEQLKSGTASVVCLLNNFYPREAKVQWKVDNALQSGNSQESVTEQDSKDSTYSLSSTLTLSKADYEKHKVYACEVTHQGLSSPVTKSFNRGEC
100 % of GpH7-B3/GpL16-k0 (=100) | GpH7-B3 variant S337_12R/GpL16-k0 (antibody, human IgG1, kappa, also called Ho Ab) heavy: not shown light: DIVMTQSPLSLPVTPGEPASISCQASESLVHSNRNTYLHWYLQKPGQSPQLLIYKVSNRFSGVPDRFSGSGSGTDFTLKISRVEAEDVGVYYCSQNTHVPPTFGQGTKVEIERTVAAPSVFIFPPSDEQLKSGTASVVCLLNNFYPREAKVQWKVDNALQSGNSQESVTEQDSKDSTYSLSSTLTLSKADYEKHKVYACEVTHQGLSSPVTKSFNRGEC
107 % of GpH7-B3/GpL16-k0 (=100) | GpH7-B3 variant S337_16H/GpL16-k0 (antibody, human IgG1, kappa, also called Ho Ab) heavy: not shown light: DIVMTQSPLSLPVTPGEPASISCQASESLVHSNRNTYLHWYLQKPGQSPQLLIYKVSNRFSGVPDRFSGSGSGTDFTLKISRVEAEDVGVYYCSQNTHVPPTFGQGTKVEIERTVAAPSVFIFPPSDEQLKSGTASVVCLLNNFYPREAKVQWKVDNALQSGNSQESVTEQDSKDSTYSLSSTLTLSKADYEKHKVYACEVTHQGLSSPVTKSFNRGEC
110 % of GpH7-B3/GpL16-k0 (=100) | GpH7-B3 variant S337_10E/GpL16-k0 (antibody, human IgG1, kappa, also called Ho Ab) heavy: not shown light: DIVMTQSPLSLPVTPGEPASISCQASESLVHSNRNTYLHWYLQKPGQSPQLLIYKVSNRFSGVPDRFSGSGSGTDFTLKISRVEAEDVGVYYCSQNTHVPPTFGQGTKVEIERTVAAPSVFIFPPSDEQLKSGTASVVCLLNNFYPREAKVQWKVDNALQSGNSQESVTEQDSKDSTYSLSSTLTLSKADYEKHKVYACEVTHQGLSSPVTKSFNRGEC
102 % of GpH7-B3/GpL16-k0 (=100) | GpH7-B3 variant S298_06M/GpL16-k0 (antibody, human IgG1, kappa, also called Ho Ab) heavy: not shown light: DIVMTQSPLSLPVTPGEPASISCQASESLVHSNRNTYLHWYLQKPGQSPQLLIYKVSNRFSGVPDRFSGSGSGTDFTLKISRVEAEDVGVYYCSQNTHVPPTFGQGTKVEIERTVAAPSVFIFPPSDEQLKSGTASVVCLLNNFYPREAKVQWKVDNALQSGNSQESVTEQDSKDSTYSLSSTLTLSKADYEKHKVYACEVTHQGLSSPVTKSFNRGEC
102 % of GpH7-B3/GpL16-k0 (=100) | GpH7-B3 variant S337_03V/GpL16-k0 (antibody, human IgG1, kappa, also called Ho Ab) heavy: not shown light: DIVMTQSPLSLPVTPGEPASISCQASESLVHSNRNTYLHWYLQKPGQSPQLLIYKVSNRFSGVPDRFSGSGSGTDFTLKISRVEAEDVGVYYCSQNTHVPPTFGQGTKVEIERTVAAPSVFIFPPSDEQLKSGTASVVCLLNNFYPREAKVQWKVDNALQSGNSQESVTEQDSKDSTYSLSSTLTLSKADYEKHKVYACEVTHQGLSSPVTKSFNRGEC
100 % of GpH7-B3/GpL16-k0 (=100) | GpH7-B3 variant S337_15Y/GpL16-k0 (antibody, human IgG1, kappa, also called Ho Ab) heavy: not shown light: DIVMTQSPLSLPVTPGEPASISCQASESLVHSNRNTYLHWYLQKPGQSPQLLIYKVSNRFSGVPDRFSGSGSGTDFTLKISRVEAEDVGVYYCSQNTHVPPTFGQGTKVEIERTVAAPSVFIFPPSDEQLKSGTASVVCLLNNFYPREAKVQWKVDNALQSGNSQESVTEQDSKDSTYSLSSTLTLSKADYEKHKVYACEVTHQGLSSPVTKSFNRGEC
101 % of GpH7-B3/GpL16-k0 (=100) | GpH7-B3 variant S298_08L/GpL16-k0 (antibody, human IgG1, kappa, also called Ho Ab) heavy: not shown light: DIVMTQSPLSLPVTPGEPASISCQASESLVHSNRNTYLHWYLQKPGQSPQLLIYKVSNRFSGVPDRFSGSGSGTDFTLKISRVEAEDVGVYYCSQNTHVPPTFGQGTKVEIERTVAAPSVFIFPPSDEQLKSGTASVVCLLNNFYPREAKVQWKVDNALQSGNSQESVTEQDSKDSTYSLSSTLTLSKADYEKHKVYACEVTHQGLSSPVTKSFNRGEC
167 % of GpH7-B3/GpL16-k0 (=100) | GpH7-B3 variant S267_09D/GpL16-k0 (antibody, human IgG1, kappa, also called Ho Ab) heavy: not shown light: DIVMTQSPLSLPVTPGEPASISCQASESLVHSNRNTYLHWYLQKPGQSPQLLIYKVSNRFSGVPDRFSGSGSGTDFTLKISRVEAEDVGVYYCSQNTHVPPTFGQGTKVEIERTVAAPSVFIFPPSDEQLKSGTASVVCLLNNFYPREAKVQWKVDNALQSGNSQESVTEQDSKDSTYSLSSTLTLSKADYEKHKVYACEVTHQGLSSPVTKSFNRGEC
118 % of GpH7-B3/GpL16-k0 (=100) | GpH7-B3 variant S324_06M/GpL16-k0 (antibody, human IgG1, kappa, also called Ho Ab) heavy: not shown light: DIVMTQSPLSLPVTPGEPASISCQASESLVHSNRNTYLHWYLQKPGQSPQLLIYKVSNRFSGVPDRFSGSGSGTDFTLKISRVEAEDVGVYYCSQNTHVPPTFGQGTKVEIERTVAAPSVFIFPPSDEQLKSGTASVVCLLNNFYPREAKVQWKVDNALQSGNSQESVTEQDSKDSTYSLSSTLTLSKADYEKHKVYACEVTHQGLSSPVTKSFNRGEC
102 % of GpH7-B3/GpL16-k0 (=100) | GpH7-B3 variant S267_06M/GpL16-k0 (antibody, human IgG1, kappa, also called Ho Ab) heavy: not shown light: DIVMTQSPLSLPVTPGEPASISCQASESLVHSNRNTYLHWYLQKPGQSPQLLIYKVSNRFSGVPDRFSGSGSGTDFTLKISRVEAEDVGVYYCSQNTHVPPTFGQGTKVEIERTVAAPSVFIFPPSDEQLKSGTASVVCLLNNFYPREAKVQWKVDNALQSGNSQESVTEQDSKDSTYSLSSTLTLSKADYEKHKVYACEVTHQGLSSPVTKSFNRGEC
110 % of GpH7-B3/GpL16-k0 (=100) | GpH7-B3 variant S267_19Q/GpL16-k0 (antibody, human IgG1, kappa, also called Ho Ab) heavy: not shown light: DIVMTQSPLSLPVTPGEPASISCQASESLVHSNRNTYLHWYLQKPGQSPQLLIYKVSNRFSGVPDRFSGSGSGTDFTLKISRVEAEDVGVYYCSQNTHVPPTFGQGTKVEIERTVAAPSVFIFPPSDEQLKSGTASVVCLLNNFYPREAKVQWKVDNALQSGNSQESVTEQDSKDSTYSLSSTLTLSKADYEKHKVYACEVTHQGLSSPVTKSFNRGEC

Reference: patent US20150344570A1 (published 2015)
